From US20200399712A1, “COMPOSITIONS AND METHODS FOR THE DIAGNOSIS AND DETECTION OF TUMORS AND CANCER PROGNOSIS” (priority 2018, published 2020)
Entries after “also recorded” stand apart in the source; their conditions may differ. Marks after values point to notes of the source that are not given here.

Key:
[1] = test system: HPV16 DNA; test: CLIA test for HPV16, performance characteristics in plasma
Text: (§1) These primer/probe sets were adapted for development of a CLIA test for HPV16 DNA detection in plasma and salivary rinses (Table 2). Test performance was improved, so that analytical sensitivity in salivary rinse spike in assays ranges from 2.5-5.0 DNA copies/mL with 100% specificity for the three primer/probe sets that are now part of the component assay, resulting in a five-fold improvement in analytic sensitivity that is in the range of sensitivity found in sequence based liquid biopsy methods (FIG. 23, Table 2). Additionally, the assays can be used quantitatively, with measuring ranges between 2.0 log10-7.0 log10 copies/mL.

[2] = test system: HPV DNA; test: CLIA HPV test pilot study on saliva rinse samples from HPV-positive HNSCC patients and non-cancer controls; set-up: species or system HPV16; HPV16 DNA measured by CLIA HPV test: unit not given here
Procedure: As a final validation, Applicants a small pilot study was performed on a blinded set of saliva rinse samples from 28 patients with HPV-positive HNSCC and 15 salivary rinses from non-cancer controls. […] The sensitivity increased to 96% when all three sets were used (Table 3).

[3] = test system: HPV-16 genome; test: qPCR sensitivity against HPV-16 copy number (known-copy HPV-16 DNA among 10 ng normal human DNA); conditions: for reaction under 10 copies of HPV-16 genome / reaction under 30 copies of HPV-16 genome: among 10 ng normal DNA, triplicate qPCR
[4] = test system: HPV-16; test: qPCR sensitivity against HPV-HNSCC tumor samples diluted among 10 ng normal human DNA
[5] = test system: HPV-16; test: qPCR on 20 ng DNA from saliva samples of HPV-HNSCC patients
Procedure: All samples were run in triplicates.
The sensitivity of detection from saliva 20 ng DNA samples is 32.1% (9/28) in E6 primer-probe sets, 42.9% (12/28) in E7 primer-probe sets, 35.7% (10/28) in “Min-5” primer-probe sets, 46.4% (13/28) in “Max-10” primer-probe sets. The sensitivity of combination of “5” and “10” is 50% (14/28) and that of E6 and E7 is 42.9% (12/28). By the standard curve analysis, the copy numbers that detected by “Max-10” primer-probe sets were the highest in these 4 primer-probe sets. The slope of standard curve is −3.5 in “Min-5” primer-probe sets when delta Rn is plotted against cycle threshold (FIG. 5).

[6] = test system: HPV16 DNA; test: CLIA test for HPV16, performance characteristics in salivary rinse
Text: as §1

[7] = first template ('... HPV16', word is an image)
[8] = second template (name is an image)
[9] = samples tested 3 times, 10 ng DNA from healthy individual
[10] = tumor DNA dilution, fraction of 32 samples

B1: BR E1-5: HPV-16 E1 region primer/probe set, SEQ ID NO: 40-42 (same as SEQ ID NO: 1-3) (nucleic acid)
DNA 1: GCACAATTGGCAGACACTAAT
DNA 2: GCACAATCCTTTACAATTTTTGCC
DNA 3: AGTAATGCAAGTGCCTTTCTAAAAAGTAATTC
modifications: chemistry not given here
- Accuracy - Plasma Blind Panel, Negative % Agreement [1]: 100%
- Accuracy - Plasma Blind Panel, Positive % Agreement [1]: 100%
- Accuracy - Plasma Blind Panel, Total % Agreement [1]: 100%
- Measuring Range - Plasma ([1]; first template ('... HPV16')): 2.0-8.5 log10 log10 copies/mL
- Limit of Detection - Plasma [1, 7]: 1.5 copies/mL
- Limit of Detection - Plasma [1, 8]: 22 copies/mL
- Measuring Range - Plasma [1, 8]: 2.0-6.5 log10 log10 copies/mL
- sensitivity for the detection of HPV DNA in saliva rinse samples ([2]; 28 patients with HPV-positive HNSCC): 79%
- HPV16 DNA measured by CLIA HPV test ([2]; saliva sample from HPV-HNSCC patient # 1): 866000
- HPV16 DNA measured by CLIA HPV test ([2]; saliva sample from HPV-HNSCC patient # 2): 118000
- HPV16 DNA measured by CLIA HPV test ([2]; saliva sample from HPV-HNSCC patient # 3): 47600
- HPV16 DNA measured by CLIA HPV test ([2]; saliva sample from HPV-HNSCC patient # 4): 104000
- HPV16 DNA measured by CLIA HPV test ([2]; saliva sample from HPV-HNSCC patient # 7): 9790
- HPV16 DNA measured by CLIA HPV test ([2]; saliva sample from HPV-HNSCC patient # 8): 3590
- HPV16 DNA measured by CLIA HPV test ([2]; saliva sample from HPV-HNSCC patient # 9): 2600
- HPV16 DNA measured by CLIA HPV test ([2]; saliva sample from HPV-HNSCC patient # 12): 127
- HPV16 DNA measured by CLIA HPV test ([2]; saliva sample from HPV-HNSCC patient # 13): 290
- HPV16 DNA measured by CLIA HPV test ([2]; saliva sample from HPV-HNSCC patient # 14): 114
- HPV16 DNA measured by CLIA HPV test ([2]; saliva sample from HPV-HNSCC patient # 15): 160
- HPV16 DNA measured by CLIA HPV test ([2]; saliva sample from HPV-HNSCC patient # 16): 121
- HPV16 DNA measured by CLIA HPV test ([2]; saliva sample from HPV-HNSCC patient # 17): 67.4
- HPV16 DNA measured by CLIA HPV test ([2]; saliva sample from HPV-HNSCC patient # 18): 15.8
- HPV16 DNA measured by CLIA HPV test ([2]; saliva sample from HPV-HNSCC patient # 19): 61.1
- HPV16 DNA measured by CLIA HPV test ([2]; saliva sample from HPV-HNSCC patient # 20): 30.9
- HPV16 DNA measured by CLIA HPV test ([2]; saliva sample from HPV-HNSCC patient # 21): 25.7
- HPV16 DNA measured by CLIA HPV test ([2]; saliva sample from HPV-HNSCC patient # 22): 2.68
- HPV16 DNA measured by CLIA HPV test ([2]; saliva sample from HPV-HNSCC patient # 23): 1.82
- HPV16 DNA measured by CLIA HPV test ([2]; saliva sample from HPV-HNSCC patient # 24): 14.4
- HPV16 DNA measured by CLIA HPV test ([2]; saliva sample from HPV-HNSCC patient # 25): 2.76
- HPV16 DNA measured by CLIA HPV test ([2]; saliva sample from HPV-HNSCC patient # 27): 2.17
- reaction under 10 copies of HPV-16 genome [3]: consistent detection
- reaction under 30 copies of HPV-16 genome [3]: consistently amplified
- reaction under 10 copies of HPV-16 genome ([3]; listed as Min-5): consistently triplicate reaction; also recorded: could detect
- reaction under 30 copies of HPV-16 genome ([3]; listed as Min-5): react consistently
- number of reactions against 10 HPV-16 copies [3, 9]: 3 reactions
- number of reactions under 30 HPV-16 copies [3, 9]: 3 reactions
- sensitivity under 100 cells ([4]; 32 HPV-HNSCC tumor samples): 96.9%
- sensitivity under single cells ([4]; 32 HPV-HNSCC tumor samples, 6.6 pg DNA): 28.1%
- sensitivity under 10 cells ([4]; 32 HPV-HNSCC tumor samples, 66 pg DNA): 68.7%
- Threshold of tumor cell numbers for HPV-16 detection ([4]; Sample # 1): 60.0 tumor cells
- Threshold of tumor cell numbers for HPV-16 detection ([4]; Sample # 2): 150.0 tumor cells
- Threshold of tumor cell numbers for HPV-16 detection ([4]; Sample # 3): 30.0 tumor cells
- Threshold of tumor cell numbers for HPV-16 detection ([4]; Sample # 4): 6.0 tumor cells
- Threshold of tumor cell numbers for HPV-16 detection ([4]; Sample # 5): 6.0 tumor cells
- Threshold of tumor cell numbers for HPV-16 detection ([4]; Sample # 6): 15.0 tumor cells
- Threshold of tumor cell numbers for HPV-16 detection ([4]; Sample # 7): 30.0 tumor cells
- Threshold of tumor cell numbers for HPV-16 detection ([4]; Sample # 8): 30.0 tumor cells
- Threshold of tumor cell numbers for HPV-16 detection ([4]; Sample # 9): 1.2 tumor cells
- Threshold of tumor cell numbers for HPV-16 detection ([4]; Sample # 10): 6.0 tumor cells
- Threshold of tumor cell numbers for HPV-16 detection ([4]; Sample # 11): 30.0 tumor cells
- Threshold of tumor cell numbers for HPV-16 detection ([4]; Sample # 12): 30.0 tumor cells
- Threshold of tumor cell numbers for HPV-16 detection ([4]; Sample # 13): 6.0 tumor cells
- Threshold of tumor cell numbers for HPV-16 detection ([4]; Sample # 14): 6.0 tumor cells
- Threshold of tumor cell numbers for HPV-16 detection ([4]; Sample # 15): 6.0 tumor cells
- Threshold of tumor cell numbers for HPV-16 detection ([4]; Sample # 16): 6.0 tumor cells
- Threshold of tumor cell numbers for HPV-16 detection ([4]; Sample # 17): 1.2 tumor cells
- Threshold of tumor cell numbers for HPV-16 detection ([4]; Sample # 18): 0.2 tumor cells
- Threshold of tumor cell numbers for HPV-16 detection ([4]; Sample # 19): 1.2 tumor cells
- Threshold of tumor cell numbers for HPV-16 detection ([4]; Sample # 20): 3.0 tumor cells
- Threshold of tumor cell numbers for HPV-16 detection ([4]; Sample # 21): 0.6 tumor cells
- Threshold of tumor cell numbers for HPV-16 detection ([4]; Sample # 22): 0.3 tumor cells
- Threshold of tumor cell numbers for HPV-16 detection ([4]; Sample # 23): 1.2 tumor cells
- Threshold of tumor cell numbers for HPV-16 detection ([4]; Sample # 24): 0.6 tumor cells
- Threshold of tumor cell numbers for HPV-16 detection ([4]; Sample # 25): 0.3 tumor cells
- Threshold of tumor cell numbers for HPV-16 detection ([4]; Sample # 26): 0.6 tumor cells
- Threshold of tumor cell numbers for HPV-16 detection ([4]; Sample # 27): 0.6 tumor cells
- Threshold of tumor cell numbers for HPV-16 detection ([4]; Sample # 28): 0.6 tumor cells
- Threshold of tumor cell numbers for HPV-16 detection ([4]; Sample # 29): 1.0 tumor cells
- Threshold of tumor cell numbers for HPV-16 detection ([4]; Sample # 30): 15.0 tumor cells
- Threshold of tumor cell numbers for HPV-16 detection ([4]; Sample # 31): 0.6 tumor cells
- Threshold of tumor cell numbers for HPV-16 detection ([4]; Sample # 32): 15.0 tumor cells
- Sensitivity, 1 cell [4, 10]: 0.281*
- Sensitivity, 3 cells [4, 10]: 0.438
- Sensitivity, 10 cells [4, 10]: 0.688
- Sensitivity, 30 cells [4, 10]: 0.938*
- Sensitivity, 100 cells [4, 10]: 0.969*
- sensitivity of detection from saliva 20 ng DNA samples ([5]; 28 HPV-HNSCC saliva samples): 35.7%
- slope of standard curve (delta Rn plotted against cycle threshold) ([5]; RT-PCR, 20 ng DNA from HPV-HNSCC saliva samples (FIG. 5)): −3.5
- Measuring Range - Salivary Rinse ([6]; first template ('... HPV16')): 2.0-8.5 log10 log10 copies/mL
- Limit of Detection - Salivary rinse [6, 7]: 3 copies/mL
- Limit of Detection - Salivary rinse [6, 8]: 12 copies/mL
- Measuring Range - Salivary Rinse [6, 8]: 2.0-6.5 log10 log10 copies/mL
